A word on the stoichiometry N: it is a count of units in the complex or per binding partner.

First the molecules themselves.
B1: Redβ V79A (natural protein, bacteriophage λ)
chain: GSHMSTALATLAGKLAERVGMDSVDPQELITTLRQTAFKGDASDAQFIALLIVANQYGLNPWTKEIYAFPDKQNGIVPVVGADGWSRIINENQQFDGMDFEQDNESCTCRIYRKDRNHPICVTEWMDECRREPFKTREGREITGPWQSHPKRMLRHKAMIQCARLAFGFAGIYDKDEAERIVENTAYTAERQPERDITPVNDETMQEINTLLIALDKTWDDDLLPLCSQIFRRDIRASSELTQAEAVKALGFLKQKAAEQKVAA
notes: three residues (Gly-Ser-His) left before the initial methionine after thrombin removal of the tag; Redβ, recombinase of Enterobacteria phage λ, alanine substitution mutant; source: E. coli BL21(DE3), purified (HisTrap FF, thrombin digestion, HisTrap FF, Benzamidine FF); not shown: His6, N-terminal, cleaved
B2: Redβ K69A (natural protein, bacteriophage λ)
chain: B1 chain with K72A, A82V
notes: as for B1
B3: Redβ D80A (natural protein, bacteriophage λ)
chain: B1 chain with A82V, D83A
notes: as for B1
B4: Redβ G78A (natural protein, bacteriophage λ)
chain: B1 chain with G81A, A82V
notes: as for B1
B5: Redβ R149A (natural protein, bacteriophage λ)
chain: B1 chain with A82V, R152A
notes: three residues (Gly-Ser-His) left before the initial methionine after thrombin removal of the tag; Redβ, recombinase of Enterobacteria phage λ, alanine substitution mutant; By gel filtration complexes of approximately 3 subunits; source: E. coli BL21(DE3), purified (HisTrap FF, thrombin digestion, HisTrap FF, Benzamidine FF); not shown: His6, N-terminal, cleaved
B6: Redβ V77A (natural protein, bacteriophage λ)
chain: B1 chain with V80A, A82V
notes: as for B1
B7: Redβ Y64A (natural protein, bacteriophage λ)
chain: B1 chain with Y67A, A82V
notes: as for B1
B8: Redβ K148A (natural protein, bacteriophage λ)
chain: B1 chain with A82V, K151A
notes: as for B5
B9: Redβ R152A (natural protein, bacteriophage λ)
chain: B1 chain with A82V, R155A
notes: as for B1
B10: Redβ K132A (natural protein, bacteriophage λ)
chain: B1 chain with A82V, K135A
notes: as for B1
B11: Redβ wild-type (WT) protein from bacteriophage λ (natural protein)
chain: B1 chain with A82V
notes: three residues (Gly-Ser-His) left before the initial methionine after thrombin removal of the tag; Redβ, recombinase of Enterobacteria phage λ, bet gene amplified from phage λ genomic DNA, in pET14b; Forms multimers; subunit about 30 kDa; also called Redβ WT; source: E. coli BL21(DE3), purified (HisTrap FF, thrombin digestion, HisTrap FF, Benzamidine FF); not shown: His6, N-terminal, cleaved
B12: Redβ R161A (natural protein, bacteriophage λ)
chain: B1 chain with A82V, R164A
notes: as for B1
B13: Redβ K172A (natural protein, bacteriophage λ)
chain: B1 chain with A82V, K175A
notes: as for B1

Residue numbers refer to the chain shown, from its start.

The first data set concerns the molecule itself. Put plainly: SEC; Superdex 200 5/150 GL, 20 mM potassium phosphate pH 6.0, 10 mM MgCl2, 0.15 M NaCl; masses estimated from a calibration curve; self-association, no DNA.
Regarding B1, the binding result is recorded as “binds”.
The same measure, in the same setting: the value for B2 was “binds”; that for B3 was “binds”; that for B4 was “binds”.
Regarding B5, the “stoichiometry N” value is roughly 3 subunits.
On to B6, for which the binding result is reported as “binds”.
Same read-out and setting: the entry for B7 is “binds”.
Take B8: the “stoichiometry N” value is roughly 3 subunits.
As to B9, the binding result is given as “binds”.
Same read-out and setting: the entry for B10 is “binds”.

Another data set deals with the molecule itself. Put plainly: native gel or EMSA; native PAGE, 10 µg protein per lane (20 µg in Figure S3), 5-20% gradient polyacrylamide gel, 25 mM Tris, 192 mM glycine, Coomassie stain; self-association, no DNA. (In general: Mobility shift assays separate free from complexed probe on a gel.)
Turning to B11, the binding result is given as “binds”.
On to B12, for which the binding result was “binds”.
On the same count and under the same terms, the value for B13 was “binds”.

These data come from publication PMC3823998, “Structural and Functional Characterization of the Redβ Recombinase from Bacteriophage λ” (PLoS ONE, 2013).
